Patent US20220372484A1

Target: human FPR2 (transcript variant 1; Origene) fused with mGFP (human) (UniProt P25090)
Assay: cell-based or functional assay

“LL37 peptide (from UniProt P49913 134-170)” showed an Inhibition (%) of forskolin-mediated cAMP production of 46%.
